Results on one molecule are retold here after US20250186535A1, “OPHTALMIC COMPOSITIONS AND METHODS OF USING SAME” (Tarsier Pharma Ltd., priority 2021, published 2025).

*1 amine or outer side, *2 acyl side, *3 side chain or, on linkers, in order; H or OH if unused. Where a SMILES comes first, the peptide text is derived from it. [ ]: non-standard residue; d: D form. X1 = C[N+](C)(C)CCOP(=O)([O-])Oc1ccc(/N=N/c2cc(C[C@H](N[*:1])C(=O)[*:2])ccc2O)cc1

A short description of the data set: Solubility of drug substance in water. It counts as physicochemical. Here is the method: Drug Substance [TRS]: is a trifluoroacetate [TFA] salt of phosphorylcholine-tuftsin conjugate represented by Formula 1, SEQ ID NO: 2 (as shown herein). Molecular formula: C43H68N13013P, Appearance: Yellow to orange solid. Solubility: >40 mg/ml in water.

The solubility is the concentration that dissolves in the medium under given conditions. Regarding `C[C@@H](O)[C@H](N)C(=O)N[C@@H](CCCCN)C(=O)N1CCC[C@H]1C(=O)N[C@@H](CCCNC(=N)N)C(=O)NCC(=O)N[C@@H](Cc1ccc(O)c(/N=N/c2ccc(OP(=O)([O-])OCC[N+](C)(C)C)cc2)c1)C(=O)O` [TRS, phosphorylcholine-tuftsin conjugate] (H-TKPRG[X1]-OH), the solubility is more than 40 mg/mL.
